Here are results for two substances from patent US20250230217A1.

The target in this test is mesothelin-Fc fusion protein (human) (UniProt Q13421). In words: cell-based or functional assay.
UniProt Q13421, sequence (Q13421 other isoform, or with tags, fused parts or gaps limits assumed): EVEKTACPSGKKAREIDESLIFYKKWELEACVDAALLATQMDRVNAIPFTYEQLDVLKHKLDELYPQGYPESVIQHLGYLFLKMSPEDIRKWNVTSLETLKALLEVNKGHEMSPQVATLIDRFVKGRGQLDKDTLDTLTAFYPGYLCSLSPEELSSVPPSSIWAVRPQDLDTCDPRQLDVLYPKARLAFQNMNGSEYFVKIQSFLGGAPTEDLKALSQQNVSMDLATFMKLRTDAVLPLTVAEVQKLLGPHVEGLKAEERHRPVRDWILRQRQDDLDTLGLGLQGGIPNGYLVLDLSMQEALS

Turning to “mesothelin-specific 28z CAR (SS1 scFv, CD28 and CD3z domains)”, the Total Population Doublings (donor 1) (population doublings) came out at 5.8, the Total Population Doublings (donor 2) (population doublings) worked out at 6.9 and the Total Population Doublings (donor 3) (population doublings) was found to be 6.

Turning to “mesothelin-specific BBz CAR (SS1 scFv, 4-1BB and CD3z domains)”, the Total Population Doublings (donor 1) (population doublings) was 8.8, the Total Population Doublings (donor 2) (population doublings) was 8.4 and the Total Population Doublings (donor 3) (population doublings) was found to be 8.4.
